± gives the standard deviation of the averaged measurements.
System: ATP
Assay: switch fluorescence ratio, 500 uM ATP over buffer (Cy3 cluster intensity, sum of 5 cycles each) (fold (ratio)); higher = stronger signal-on switching upon ATP binding; sequences stand for … in TCGTCGGCAGCGTCAGATGTGTATAAGAGACAGTTTTTTTTTTTTTTTTTTTTTTTTT…TC
Details: aptamer strand: ATP DNA aptamer (quencher-CACCTGGGGGAGTATTGCGGAGGAAGG + anchor), 100 nM annealed; ATP concentration: 500 uM
Procedure, shortened: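 Switching-strand clusters labelled with Cy3 on a modified Illumina MiSeq flow-cell were annealed to 100 nM quencher-labelled ATP aptamer, imaged in selection buffer, and re-imaged after 15 min with 500 uM ATP at 22 °C. This was done over five cycles with NaOH stripping and re-annealing in between. The fluorescence ratio is summed target-cycle over summed buffer-cycle Cy3 intensity per cluster, averaged per switch-domain sequence, excluding clusters outside 100-1000 RFU.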
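Further: ATP exposure 15 min at 22 °C before imaging.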

Row | Sequence | switch fluorescence ratio
1 | GGATCAGAAG | 1.004 ± 0.0056
2 | GGATCCTGCA | 1.04 ± 0.052
3 | GGATCGGATT | 0.979 ± 0.023
4 | GGATCGGGGC | 0.994 ± 0.046
5 | GGATGAAAG | 0.99 ± 0.014
6 | GGATGAACGG | 1.01 ± 0.079
7 | GGATGACTTT | 0.9981 ± 0.0071
8 | GGATGAGGGC | 0.993 ± 0.0099
9 | GGATGAGGTT | 0.982 ± 0.044
10 | GGATGATCTT | 0.972 ± 0.022
11 | GGATGCAAAG | 1.01 ± 0.013
12 | GGATGCTCGG | 0.966 ± 0.015
13 | GGATGCTGGT | 1.04 ± 0.053
14 | GGATGCTGTG | 0.991 ± 0.013
15 | GGATGCTGTT | 1.02 ± 0.012
16 | GGATGCTTGG | 1.05 ± 0.021
17 | GGATGGAAAT | 1.04 ± 0.012
18 | GGATGGAGGG | 0.965 ± 0.02
19 | GGATGGAGGT | 1 ± 0.023
20 | GGATGGGTCG | 1.02 ± 0.083
21 | GGATGGTTTT | 1.02 ± 0.018
22 | GGATGTAGAA | 1.026 ± 0.0011
23 | GGATGTCACT | 0.974 ± 0.016
24 | GGATGTCGCG | 1.0124 ± 0.001
25 | GGATGTGAGC | 0.983 ± 0.021

Row | Sequence | switch fluorescence ratio
26 | GGATGTTGTG | 0.974 ± 0.04
27 | GGATGTTTAG | 1.02 ± 0.021
28 | GGATGTTTTT | 1.03 ± 0.026
29 | GGATTAAGTG | 0.9616 ± 0.006
30 | GGATTAGACG | 0.955 ± 0.062
31 | GGATTAGGAG | 0.975 ± 0.011
32 | GGATTAGGTA | 1 ± 0.021
33 | GGATTATACA | 1.02 ± 0.002
34 | GGATTCGTAA | 0.998 ± 0.01
35 | GGATTGAGTT | 0.999 ± 0.035
36 | GGATTGGGAC | 1.024 ± 0.0016
37 | GGATTGTATG | 0.994 ± 0.032
38 | GGATTGTCTT | 1 ± 0.0014
39 | GGATTTAAAA | 1.05 ± 0.044
40 | GGATTTCATG | 1.07 ± 0.12
41 | GGATTTGGCT | 0.999 ± 0.029
42 | GGATTTGGTG | 1 ± 0.012
43 | GGCAAATGGG | 1.02 ± 0.012
44 | GGCAATGAAG | 1.03 ± 0.049
45 | GGCACACAGT | 1 ± 0.015
46 | GGCACCTGAC | 1.95 ± 0.11
47 | GGCACGAGGA | 1.04 ± 0.017
48 | GGCACGCGAG | 1.03 ± 0.05
49 | GGCACGGGGG | 1.02 ± 0.008
50 | GGCACTATCC | 1.09 ± 0.07

Row | Sequence | switch fluorescence ratio
51 | GGCACTGGTA | 0.981 ± 0.022
52 | GGCACTTCCA | 1.03 ± 0.028
53 | GGCAGATGAA | 1.03 ± 0.011
54 | GGCAGATTCC | 1.05 ± 0.019
55 | GGCAGATTTT | 0.9986 ± 0.006
56 | GGCAGCAAGT | 1.16 ± 0.013
57 | GGCAGGTGTT | 1.73 ± 0.85
58 | GGCAGTATTT | 1.0371 ± 0.00098
59 | GGCATAATTT | 1.016 ± 0.008
60 | GGCATCAGGC | 1.03 ± 0.042
61 | GGCATCATGT | 1.012 ± 0.0039
62 | GGCATGGTTT | 1.01 ± 0.014
63 | GGCATGTTAG | 0.9847 ± 0.009
64 | GGCATTACTG | 1.06 ± 0.025
65 | GGCATTTTTC | 0.999 ± 0.021
66 | GGCCAACGTA | 0.997 ± 0.021
67 | GGCCAAGGGT | 1.03 ± 0.0039
68 | GGCCACAGCA | 1.07 ± 0.016
69 | GGCCAGGGGA | 1.04 ± 0.049
70 | GGCCCGGAGC | 1.24 ± 0.013
71 | GGCCCTTTGG | 0.984 ± 0.0082
72 | GGCCGAGGAG | 0.998 ± 0.012
73 | GGCCGAGTTA | 1.013 ± 0.0036
74 | GGCCGCGGCC | 1.0014 ± 0.00091
75 | GGCCGGAGGT | 1 ± 0.011

Row | Sequence | switch fluorescence ratio
76 | GGCCGTAATG | 1.09 ± 0.019
77 | GGCCGTATGT | 1.01 ± 0.011
78 | GGCCGTCGGA | 1.06 ± 0.091
79 | GGCCGTGAGT | 0.996 ± 0.018
80 | GGCCTACCAT | 0.9979 ± 0.0091
81 | GGCCTAGAGG | 1.01 ± 0.021
82 | GGCCTATTGG | 0.998 ± 0.023
83 | GGCCTGAGGG | 0.9854 ± 0.0032
84 | GGCCTGCTCG | 0.988 ± 0.029
85 | GGCCTGTTTT | 1.09 ± 0.21
86 | GGCCTTAAGT | 0.9912 ± 0.0025
87 | GGCGAAAAGG | 0.993 ± 0.047
88 | GGCGAAAATA | 1.007 ± 0.0079
89 | GGCGACACGT | 1.03 ± 0.023
90 | GGCGACGGAG | 0.97 ± 0.0076
91 | GGCGATTGGG | 0.99 ± 0.026
92 | GGCGCAGTTC | 1.37 ± 0.077
93 | GGCGCGCGGG | 0.991 ± 0.00073
94 | GGCGCGCGGT | 0.98 ± 0.0095
95 | GGCGCGGCGG | 1.02 ± 0.068
96 | GGCGCGTCCA | 0.994 ± 0.013
97 | GGCGCTCAGT | 1.02 ± 0.02
98 | GGCGCTTCGG | 0.967 ± 0.05
99 | GGCGGAACGT | 1 ± 0.023
100 | GGCGGACGGA | 1.07 ± 0.089
